The source of these data is patent US20020090651A1.

This experiment has as its target Xenopus FGF receptor-1 (Xenopus laevis) (UniProt P22182). Kind of experiment: cell-based or functional assay.
Sequence of UniProt P22182 (P22182 21-812): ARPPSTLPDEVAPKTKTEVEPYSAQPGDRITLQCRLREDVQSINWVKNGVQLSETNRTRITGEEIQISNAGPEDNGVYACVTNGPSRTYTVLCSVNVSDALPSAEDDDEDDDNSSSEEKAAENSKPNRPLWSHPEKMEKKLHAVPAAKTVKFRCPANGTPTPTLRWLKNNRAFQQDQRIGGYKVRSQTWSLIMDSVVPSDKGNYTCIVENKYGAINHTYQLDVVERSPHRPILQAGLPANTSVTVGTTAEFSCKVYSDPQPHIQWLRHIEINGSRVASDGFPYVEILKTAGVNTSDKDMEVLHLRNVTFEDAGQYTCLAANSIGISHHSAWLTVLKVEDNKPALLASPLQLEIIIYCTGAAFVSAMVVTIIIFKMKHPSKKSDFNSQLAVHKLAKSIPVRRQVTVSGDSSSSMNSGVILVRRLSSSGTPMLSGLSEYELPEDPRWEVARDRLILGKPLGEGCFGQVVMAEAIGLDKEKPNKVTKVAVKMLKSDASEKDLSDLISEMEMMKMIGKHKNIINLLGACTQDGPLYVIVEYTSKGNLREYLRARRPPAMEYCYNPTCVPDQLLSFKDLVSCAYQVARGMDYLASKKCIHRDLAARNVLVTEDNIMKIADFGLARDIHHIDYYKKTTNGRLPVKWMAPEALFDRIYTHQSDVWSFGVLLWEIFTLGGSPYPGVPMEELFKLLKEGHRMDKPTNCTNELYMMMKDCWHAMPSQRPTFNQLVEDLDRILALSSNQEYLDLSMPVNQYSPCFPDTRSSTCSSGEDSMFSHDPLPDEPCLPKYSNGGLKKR

FRL-2 protein (ligand) gave a Ca2+ release (efflux) of Xenopus oocytes co-injected with ligand and FGF receptor mRNAs of 2 fold.

As to “Xenopus bFGF (basic fibroblast growth factor), without a signal sequence (from UniProt P12226 1-155) (ligand)”, the Ca2+ release (efflux) of Xenopus oocytes co-injected with ligand and FGF receptor mRNAs was 3 fold.
